Data reported in publication PMC3229523, “Identification of Lactoferricin B Intracellular Targets Using an Escherichia coli Proteome Chip” (PLoS ONE, 2011).
Ends that are not written are not given here. * marks the point of attachment. Biotin = O=C1N[C@H]2[C@H](CS[C@H]2CCCCC(=O)*)N1

Legend:
Assay in all cases: peptide or protein array; E. coli proteome chip: purified His-tagged proteins printed in duplicate on Fullmoon slides, blocked with 1% BSA; 10 nM N-terminal biotinylated LfcinB with 1% BSA, room temperature, 1 h; detected with DyLight 649-labeled streptavidin, ratio to DyLight 549-labeled anti-His antibody; ProCAT normalisation, local cut-off; triplicate chips
Conditions in all cases: both partners purified
DinG = molecular target: T1, DinG (E. coli K-12, UniProt P27296 1-716)
T1 construct: DinG, E. coli K-12
T1 sequence (looked up): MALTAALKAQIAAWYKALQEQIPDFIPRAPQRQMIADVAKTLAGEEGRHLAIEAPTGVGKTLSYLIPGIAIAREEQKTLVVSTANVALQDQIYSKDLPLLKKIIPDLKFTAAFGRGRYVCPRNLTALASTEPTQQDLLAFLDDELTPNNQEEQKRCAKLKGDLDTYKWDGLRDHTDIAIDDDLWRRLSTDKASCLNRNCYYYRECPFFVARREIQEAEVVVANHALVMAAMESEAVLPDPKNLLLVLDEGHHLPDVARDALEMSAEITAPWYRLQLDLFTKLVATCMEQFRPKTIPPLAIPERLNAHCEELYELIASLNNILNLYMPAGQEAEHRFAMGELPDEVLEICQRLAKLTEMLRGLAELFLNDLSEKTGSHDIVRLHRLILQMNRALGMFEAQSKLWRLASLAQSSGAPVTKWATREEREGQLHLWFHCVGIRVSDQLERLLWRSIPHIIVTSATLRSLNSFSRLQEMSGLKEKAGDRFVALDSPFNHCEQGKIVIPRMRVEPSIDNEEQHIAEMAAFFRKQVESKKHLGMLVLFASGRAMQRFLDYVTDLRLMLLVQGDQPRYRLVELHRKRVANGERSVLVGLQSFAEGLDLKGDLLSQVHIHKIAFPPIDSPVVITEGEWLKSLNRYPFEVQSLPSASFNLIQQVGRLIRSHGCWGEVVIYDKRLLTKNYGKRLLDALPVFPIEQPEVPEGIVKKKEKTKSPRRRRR

SfmH = molecular target: T2, SfmH (E. coli K-12, UniProt P75715 25-327)
T2 construct: SfmH, E. coli K-12
T2 sequence (looked up): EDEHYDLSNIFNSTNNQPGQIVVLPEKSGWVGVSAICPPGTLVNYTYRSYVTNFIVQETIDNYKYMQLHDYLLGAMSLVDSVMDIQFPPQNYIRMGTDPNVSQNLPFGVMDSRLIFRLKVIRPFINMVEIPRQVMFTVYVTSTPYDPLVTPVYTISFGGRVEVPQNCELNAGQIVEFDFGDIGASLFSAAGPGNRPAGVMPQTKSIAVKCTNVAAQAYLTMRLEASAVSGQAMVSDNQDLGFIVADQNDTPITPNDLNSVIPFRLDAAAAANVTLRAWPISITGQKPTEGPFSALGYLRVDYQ

RpsB = RpsB (E. coli K-12, UniProt P0A7V0 1-241)
IlvL = molecular target: T3, IlvL (E. coli K-12, UniProt P62522 1-32)
T3 construct: IlvL, E. coli K-12
T3 chain (looked up): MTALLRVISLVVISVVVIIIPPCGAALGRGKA

RcsB = molecular target: T4, RcsB (E. coli K-12, UniProt P0DMC7 1-216)
T4 construct: RcsB, E. coli K-12
T4 sequence (looked up): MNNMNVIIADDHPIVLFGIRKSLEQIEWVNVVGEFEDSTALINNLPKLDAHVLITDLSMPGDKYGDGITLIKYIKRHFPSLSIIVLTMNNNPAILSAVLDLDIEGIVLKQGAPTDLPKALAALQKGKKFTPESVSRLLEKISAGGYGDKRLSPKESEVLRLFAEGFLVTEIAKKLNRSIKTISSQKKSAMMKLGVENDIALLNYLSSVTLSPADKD

FimZ = molecular target: T5, FimZ (E. coli K-12, UniProt P0AEL8 1-210)
T5 construct: FimZ, E. coli K-12
T5 sequence (looked up): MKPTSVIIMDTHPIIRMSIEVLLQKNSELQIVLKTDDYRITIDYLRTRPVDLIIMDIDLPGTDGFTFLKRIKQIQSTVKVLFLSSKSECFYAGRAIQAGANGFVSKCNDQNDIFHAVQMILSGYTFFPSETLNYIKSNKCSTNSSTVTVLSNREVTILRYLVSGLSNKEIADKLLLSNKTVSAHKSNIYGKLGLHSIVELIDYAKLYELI

YibN = molecular target: T6, YibN (E. coli K-12, UniProt P0AG27 1-143)
T6 construct: YibN, E. coli K-12
T6 sequence (looked up): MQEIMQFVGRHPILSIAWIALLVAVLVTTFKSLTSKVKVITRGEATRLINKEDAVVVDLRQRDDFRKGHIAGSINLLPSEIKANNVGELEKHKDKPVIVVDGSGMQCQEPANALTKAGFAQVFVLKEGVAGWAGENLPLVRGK

Measured: binding result

B1: N-terminal biotinylated Lactoferricin B (peptide, UniProt P24627 36-60, looked up)
peptide: Biotin-FKCRRWQWRMKKLGAPSITCVRRAF
modifications: ends and bridges not checked
notes: lactoferricin B (LfcinB), cationic antimicrobial peptide of 25 amino acids; also called biotinylated LfcinB; biotin-labeled LfcinB; source: bought: Kelowna Inc
binds: all assays above
